According to US20110118131A1 (published 2011):

Target: T1, IL-1β (UniProt P01584 117-269)
T1 construct: Antigen immobilised on the Biacore chip
Assay: Biacore, periplasmic extract

B1: XPA23 light chain R31K (Fab, V domains shown)
VH: EVQLLESGGGLVQPGGSLRLSCAASGFTFSKYFMFWVRQAPGKGLEWVSVISPSGGMTRYADSVKGRFTISRDNSKNTLYLQMNSLRAEDTAVYYCARVGYGGNSDYWGQGTLVTVSS
VL: DIQMTQSPSSVSASVGDRLTIICRASQDINKWLAWYQQTPGNAPKLLIHSATSLQSGVPSRFSGSGSGTDFTLTINSLQPEDFATYYCQQADSFPLTFGGGTKVEIK
  fold difference in affinity vs original: 1.18 fold

B2: XPA23 light chain R31L (Fab, V domains shown)
VH: EVQLLESGGGLVQPGGSLRLSCAASGFTFSKYFMFWVRQAPGKGLEWVSVISPSGGMTRYADSVKGRFTISRDNSKNTLYLQMNSLRAEDTAVYYCARVGYGGNSDYWGQGTLVTVSS
VL: DIQMTQSPSSVSASVGDRLTIICRASQDINLWLAWYQQTPGNAPKLLIHSATSLQSGVPSRFSGSGSGTDFTLTINSLQPEDFATYYCQQADSFPLTFGGGTKVEIK
  fold difference in affinity vs original: 0.51 fold

B3: XPA23 light chain R31N (Fab, V domains shown)
VH: EVQLLESGGGLVQPGGSLRLSCAASGFTFSKYFMFWVRQAPGKGLEWVSVISPSGGMTRYADSVKGRFTISRDNSKNTLYLQMNSLRAEDTAVYYCARVGYGGNSDYWGQGTLVTVSS
VL: DIQMTQSPSSVSASVGDRLTIICRASQDINNWLAWYQQTPGNAPKLLIHSATSLQSGVPSRFSGSGSGTDFTLTINSLQPEDFATYYCQQADSFPLTFGGGTKVEIK
  fold difference in affinity vs original: 0.38 fold

B4: XPA23 light chain R31P (Fab, V domains shown)
VH: EVQLLESGGGLVQPGGSLRLSCAASGFTFSKYFMFWVRQAPGKGLEWVSVISPSGGMTRYADSVKGRFTISRDNSKNTLYLQMNSLRAEDTAVYYCARVGYGGNSDYWGQGTLVTVSS
VL: DIQMTQSPSSVSASVGDRLTIICRASQDINPWLAWYQQTPGNAPKLLIHSATSLQSGVPSRFSGSGSGTDFTLTINSLQPEDFATYYCQQADSFPLTFGGGTKVEIK
  binding result: no binding

B5: XPA23 light chain R31Q (Fab, V domains shown)
VH: EVQLLESGGGLVQPGGSLRLSCAASGFTFSKYFMFWVRQAPGKGLEWVSVISPSGGMTRYADSVKGRFTISRDNSKNTLYLQMNSLRAEDTAVYYCARVGYGGNSDYWGQGTLVTVSS
VL: DIQMTQSPSSVSASVGDRLTIICRASQDINQWLAWYQQTPGNAPKLLIHSATSLQSGVPSRFSGSGSGTDFTLTINSLQPEDFATYYCQQADSFPLTFGGGTKVEIK
  fold difference in affinity vs original: 0.27 fold

B6: XPA23 light chain R31S (Fab, V domains shown)
VH: EVQLLESGGGLVQPGGSLRLSCAASGFTFSKYFMFWVRQAPGKGLEWVSVISPSGGMTRYADSVKGRFTISRDNSKNTLYLQMNSLRAEDTAVYYCARVGYGGNSDYWGQGTLVTVSS
VL: DIQMTQSPSSVSASVGDRLTIICRASQDINSWLAWYQQTPGNAPKLLIHSATSLQSGVPSRFSGSGSGTDFTLTINSLQPEDFATYYCQQADSFPLTFGGGTKVEIK
  fold difference in affinity vs original: 0.44 fold

B7: XPA23 light chain R31T (Fab, V domains shown)
VH: EVQLLESGGGLVQPGGSLRLSCAASGFTFSKYFMFWVRQAPGKGLEWVSVISPSGGMTRYADSVKGRFTISRDNSKNTLYLQMNSLRAEDTAVYYCARVGYGGNSDYWGQGTLVTVSS
VL: DIQMTQSPSSVSASVGDRLTIICRASQDINTWLAWYQQTPGNAPKLLIHSATSLQSGVPSRFSGSGSGTDFTLTINSLQPEDFATYYCQQADSFPLTFGGGTKVEIK
  fold difference in affinity vs original: 0.24 fold

B8: XPA23 light chain R31V (Fab, V domains shown)
VH: EVQLLESGGGLVQPGGSLRLSCAASGFTFSKYFMFWVRQAPGKGLEWVSVISPSGGMTRYADSVKGRFTISRDNSKNTLYLQMNSLRAEDTAVYYCARVGYGGNSDYWGQGTLVTVSS
VL: DIQMTQSPSSVSASVGDRLTIICRASQDINVWLAWYQQTPGNAPKLLIHSATSLQSGVPSRFSGSGSGTDFTLTINSLQPEDFATYYCQQADSFPLTFGGGTKVEIK
  fold difference in affinity vs original: 0.44 fold

B9: XPA23 light chain R31W (Fab, V domains shown)
VH: EVQLLESGGGLVQPGGSLRLSCAASGFTFSKYFMFWVRQAPGKGLEWVSVISPSGGMTRYADSVKGRFTISRDNSKNTLYLQMNSLRAEDTAVYYCARVGYGGNSDYWGQGTLVTVSS
VL: DIQMTQSPSSVSASVGDRLTIICRASQDINWWLAWYQQTPGNAPKLLIHSATSLQSGVPSRFSGSGSGTDFTLTINSLQPEDFATYYCQQADSFPLTFGGGTKVEIK
  fold difference in affinity vs original: 0.43 fold

B10: XPA23 light chain R31Y (Fab, V domains shown)
VH: EVQLLESGGGLVQPGGSLRLSCAASGFTFSKYFMFWVRQAPGKGLEWVSVISPSGGMTRYADSVKGRFTISRDNSKNTLYLQMNSLRAEDTAVYYCARVGYGGNSDYWGQGTLVTVSS
VL: DIQMTQSPSSVSASVGDRLTIICRASQDINYWLAWYQQTPGNAPKLLIHSATSLQSGVPSRFSGSGSGTDFTLTINSLQPEDFATYYCQQADSFPLTFGGGTKVEIK
  binding result: no binding

B11: XPA23 light chain S50A (Fab, V domains shown)
VH: EVQLLESGGGLVQPGGSLRLSCAASGFTFSKYFMFWVRQAPGKGLEWVSVISPSGGMTRYADSVKGRFTISRDNSKNTLYLQMNSLRAEDTAVYYCARVGYGGNSDYWGQGTLVTVSS
VL: DIQMTQSPSSVSASVGDRLTIICRASQDINRWLAWYQQTPGNAPKLLIHAATSLQSGVPSRFSGSGSGTDFTLTINSLQPEDFATYYCQQADSFPLTFGGGTKVEIK
  fold difference in affinity vs original: 0.13 fold

B12: XPA23 light chain S50D (Fab, V domains shown)
VH: EVQLLESGGGLVQPGGSLRLSCAASGFTFSKYFMFWVRQAPGKGLEWVSVISPSGGMTRYADSVKGRFTISRDNSKNTLYLQMNSLRAEDTAVYYCARVGYGGNSDYWGQGTLVTVSS
VL: DIQMTQSPSSVSASVGDRLTIICRASQDINRWLAWYQQTPGNAPKLLIHDATSLQSGVPSRFSGSGSGTDFTLTINSLQPEDFATYYCQQADSFPLTFGGGTKVEIK
  binding result: no binding

B13: XPA23 light chain S50E (Fab, V domains shown)
VH: EVQLLESGGGLVQPGGSLRLSCAASGFTFSKYFMFWVRQAPGKGLEWVSVISPSGGMTRYADSVKGRFTISRDNSKNTLYLQMNSLRAEDTAVYYCARVGYGGNSDYWGQGTLVTVSS
VL: DIQMTQSPSSVSASVGDRLTIICRASQDINRWLAWYQQTPGNAPKLLIHEATSLQSGVPSRFSGSGSGTDFTLTINSLQPEDFATYYCQQADSFPLTFGGGTKVEIK
  fold difference in affinity vs original: 0.02 fold

B14: XPA23 light chain S50F (Fab, V domains shown)
VH: EVQLLESGGGLVQPGGSLRLSCAASGFTFSKYFMFWVRQAPGKGLEWVSVISPSGGMTRYADSVKGRFTISRDNSKNTLYLQMNSLRAEDTAVYYCARVGYGGNSDYWGQGTLVTVSS
VL: DIQMTQSPSSVSASVGDRLTIICRASQDINRWLAWYQQTPGNAPKLLIHFATSLQSGVPSRFSGSGSGTDFTLTINSLQPEDFATYYCQQADSFPLTFGGGTKVEIK
  binding result: no binding

B15: XPA23 light chain S50G (Fab, V domains shown)
VH: EVQLLESGGGLVQPGGSLRLSCAASGFTFSKYFMFWVRQAPGKGLEWVSVISPSGGMTRYADSVKGRFTISRDNSKNTLYLQMNSLRAEDTAVYYCARVGYGGNSDYWGQGTLVTVSS
VL: DIQMTQSPSSVSASVGDRLTIICRASQDINRWLAWYQQTPGNAPKLLIHGATSLQSGVPSRFSGSGSGTDFTLTINSLQPEDFATYYCQQADSFPLTFGGGTKVEIK
  fold difference in affinity vs original: 0.14 fold

B16: XPA23 light chain S50H (Fab, V domains shown)
VH: EVQLLESGGGLVQPGGSLRLSCAASGFTFSKYFMFWVRQAPGKGLEWVSVISPSGGMTRYADSVKGRFTISRDNSKNTLYLQMNSLRAEDTAVYYCARVGYGGNSDYWGQGTLVTVSS
VL: DIQMTQSPSSVSASVGDRLTIICRASQDINRWLAWYQQTPGNAPKLLIHHATSLQSGVPSRFSGSGSGTDFTLTINSLQPEDFATYYCQQADSFPLTFGGGTKVEIK
  fold difference in affinity vs original: 0.05 fold

B17: XPA23 light chain S50I (Fab, V domains shown)
VH: EVQLLESGGGLVQPGGSLRLSCAASGFTFSKYFMFWVRQAPGKGLEWVSVISPSGGMTRYADSVKGRFTISRDNSKNTLYLQMNSLRAEDTAVYYCARVGYGGNSDYWGQGTLVTVSS
VL: DIQMTQSPSSVSASVGDRLTIICRASQDINRWLAWYQQTPGNAPKLLIHIATSLQSGVPSRFSGSGSGTDFTLTINSLQPEDFATYYCQQADSFPLTFGGGTKVEIK
  fold difference in affinity vs original: 0.25 fold

B18: XPA23 light chain S50K (Fab, V domains shown)
VH: EVQLLESGGGLVQPGGSLRLSCAASGFTFSKYFMFWVRQAPGKGLEWVSVISPSGGMTRYADSVKGRFTISRDNSKNTLYLQMNSLRAEDTAVYYCARVGYGGNSDYWGQGTLVTVSS
VL: DIQMTQSPSSVSASVGDRLTIICRASQDINRWLAWYQQTPGNAPKLLIHKATSLQSGVPSRFSGSGSGTDFTLTINSLQPEDFATYYCQQADSFPLTFGGGTKVEIK
  fold difference in affinity vs original: 0.1 fold

B19: XPA23 light chain S50L (Fab, V domains shown)
VH: EVQLLESGGGLVQPGGSLRLSCAASGFTFSKYFMFWVRQAPGKGLEWVSVISPSGGMTRYADSVKGRFTISRDNSKNTLYLQMNSLRAEDTAVYYCARVGYGGNSDYWGQGTLVTVSS
VL: DIQMTQSPSSVSASVGDRLTIICRASQDINRWLAWYQQTPGNAPKLLIHLATSLQSGVPSRFSGSGSGTDFTLTINSLQPEDFATYYCQQADSFPLTFGGGTKVEIK
  fold difference in affinity vs original: 0.49 fold

B20: XPA23 light chain S50N (Fab, V domains shown)
VH: EVQLLESGGGLVQPGGSLRLSCAASGFTFSKYFMFWVRQAPGKGLEWVSVISPSGGMTRYADSVKGRFTISRDNSKNTLYLQMNSLRAEDTAVYYCARVGYGGNSDYWGQGTLVTVSS
VL: DIQMTQSPSSVSASVGDRLTIICRASQDINRWLAWYQQTPGNAPKLLIHNATSLQSGVPSRFSGSGSGTDFTLTINSLQPEDFATYYCQQADSFPLTFGGGTKVEIK
  fold difference in affinity vs original: 0.25 fold

B21: XPA23 light chain S50P (Fab, V domains shown)
VH: EVQLLESGGGLVQPGGSLRLSCAASGFTFSKYFMFWVRQAPGKGLEWVSVISPSGGMTRYADSVKGRFTISRDNSKNTLYLQMNSLRAEDTAVYYCARVGYGGNSDYWGQGTLVTVSS
VL: DIQMTQSPSSVSASVGDRLTIICRASQDINRWLAWYQQTPGNAPKLLIHPATSLQSGVPSRFSGSGSGTDFTLTINSLQPEDFATYYCQQADSFPLTFGGGTKVEIK
  binding result: no binding

B22: XPA23 light chain S50Q (Fab, V domains shown)
VH: EVQLLESGGGLVQPGGSLRLSCAASGFTFSKYFMFWVRQAPGKGLEWVSVISPSGGMTRYADSVKGRFTISRDNSKNTLYLQMNSLRAEDTAVYYCARVGYGGNSDYWGQGTLVTVSS
VL: DIQMTQSPSSVSASVGDRLTIICRASQDINRWLAWYQQTPGNAPKLLIHQATSLQSGVPSRFSGSGSGTDFTLTINSLQPEDFATYYCQQADSFPLTFGGGTKVEIK
  fold difference in affinity vs original: 0.21 fold
